{"source": "patent US9061070B2", "about": "“Treating stroke and other diseases without inhibiting N-type calcium channels” (NoNO, Inc., priority 2007, dated 2015)", "key": {"[1]": {"biological_target": "N-type calcium channels (Mus musculus, UniProt O55017)", "sequence (O55017 whole entry)": "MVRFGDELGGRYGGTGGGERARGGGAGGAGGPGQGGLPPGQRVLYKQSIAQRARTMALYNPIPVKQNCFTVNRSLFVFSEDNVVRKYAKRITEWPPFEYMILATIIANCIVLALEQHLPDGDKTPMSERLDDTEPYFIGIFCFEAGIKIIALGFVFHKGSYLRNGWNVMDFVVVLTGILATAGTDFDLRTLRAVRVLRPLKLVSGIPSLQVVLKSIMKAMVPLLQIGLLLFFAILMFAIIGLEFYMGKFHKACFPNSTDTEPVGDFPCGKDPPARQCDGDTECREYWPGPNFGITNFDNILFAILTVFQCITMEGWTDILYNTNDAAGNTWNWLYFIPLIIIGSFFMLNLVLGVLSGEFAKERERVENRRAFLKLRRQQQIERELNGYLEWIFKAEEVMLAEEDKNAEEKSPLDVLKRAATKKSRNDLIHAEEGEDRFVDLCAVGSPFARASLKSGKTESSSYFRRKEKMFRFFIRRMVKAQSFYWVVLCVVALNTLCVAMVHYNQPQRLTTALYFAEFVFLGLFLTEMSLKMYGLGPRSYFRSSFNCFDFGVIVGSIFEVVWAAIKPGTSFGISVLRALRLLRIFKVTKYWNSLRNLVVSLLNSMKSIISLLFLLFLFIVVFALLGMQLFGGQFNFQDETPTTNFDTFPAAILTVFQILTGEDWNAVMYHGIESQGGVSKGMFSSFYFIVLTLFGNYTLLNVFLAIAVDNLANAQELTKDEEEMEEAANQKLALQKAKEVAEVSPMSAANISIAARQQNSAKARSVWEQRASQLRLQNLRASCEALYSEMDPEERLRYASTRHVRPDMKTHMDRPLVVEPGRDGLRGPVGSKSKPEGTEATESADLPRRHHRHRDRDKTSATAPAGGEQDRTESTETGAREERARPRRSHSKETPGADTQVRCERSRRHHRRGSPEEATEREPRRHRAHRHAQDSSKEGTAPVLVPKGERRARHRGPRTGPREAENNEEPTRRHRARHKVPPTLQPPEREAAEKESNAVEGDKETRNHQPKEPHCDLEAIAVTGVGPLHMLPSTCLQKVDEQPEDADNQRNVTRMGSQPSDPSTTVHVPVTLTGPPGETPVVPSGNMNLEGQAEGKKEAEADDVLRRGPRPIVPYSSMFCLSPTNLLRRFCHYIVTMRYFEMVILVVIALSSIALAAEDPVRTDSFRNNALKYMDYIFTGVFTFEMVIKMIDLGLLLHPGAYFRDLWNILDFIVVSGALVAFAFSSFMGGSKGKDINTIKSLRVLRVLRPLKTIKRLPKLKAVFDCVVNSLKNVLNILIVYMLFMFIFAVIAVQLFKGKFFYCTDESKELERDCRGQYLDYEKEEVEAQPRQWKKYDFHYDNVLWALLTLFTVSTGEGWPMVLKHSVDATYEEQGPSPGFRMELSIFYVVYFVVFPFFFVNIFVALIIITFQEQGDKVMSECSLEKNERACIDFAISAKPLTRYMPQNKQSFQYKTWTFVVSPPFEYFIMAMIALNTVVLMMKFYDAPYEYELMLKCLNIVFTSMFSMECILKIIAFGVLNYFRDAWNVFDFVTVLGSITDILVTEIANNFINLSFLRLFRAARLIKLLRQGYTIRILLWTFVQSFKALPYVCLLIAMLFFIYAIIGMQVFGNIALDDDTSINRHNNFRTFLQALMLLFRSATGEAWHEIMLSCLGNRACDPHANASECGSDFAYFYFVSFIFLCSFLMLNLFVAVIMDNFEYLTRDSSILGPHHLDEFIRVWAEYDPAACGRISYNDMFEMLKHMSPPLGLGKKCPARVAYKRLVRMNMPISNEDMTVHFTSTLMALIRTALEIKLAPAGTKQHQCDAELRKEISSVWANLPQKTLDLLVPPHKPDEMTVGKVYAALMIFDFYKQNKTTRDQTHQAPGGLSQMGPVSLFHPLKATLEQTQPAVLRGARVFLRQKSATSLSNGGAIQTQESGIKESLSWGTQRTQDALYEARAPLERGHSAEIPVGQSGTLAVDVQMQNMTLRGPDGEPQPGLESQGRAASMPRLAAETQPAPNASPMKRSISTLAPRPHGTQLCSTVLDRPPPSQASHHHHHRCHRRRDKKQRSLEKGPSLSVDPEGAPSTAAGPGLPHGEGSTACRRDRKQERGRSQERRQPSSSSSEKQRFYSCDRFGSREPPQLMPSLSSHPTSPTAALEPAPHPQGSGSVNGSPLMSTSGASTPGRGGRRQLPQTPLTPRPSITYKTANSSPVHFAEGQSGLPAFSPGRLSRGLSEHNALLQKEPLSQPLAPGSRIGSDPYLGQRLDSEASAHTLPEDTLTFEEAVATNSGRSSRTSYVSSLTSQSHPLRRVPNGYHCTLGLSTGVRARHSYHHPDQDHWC", "sequence (O08532 25-956 partner limits assumed)": "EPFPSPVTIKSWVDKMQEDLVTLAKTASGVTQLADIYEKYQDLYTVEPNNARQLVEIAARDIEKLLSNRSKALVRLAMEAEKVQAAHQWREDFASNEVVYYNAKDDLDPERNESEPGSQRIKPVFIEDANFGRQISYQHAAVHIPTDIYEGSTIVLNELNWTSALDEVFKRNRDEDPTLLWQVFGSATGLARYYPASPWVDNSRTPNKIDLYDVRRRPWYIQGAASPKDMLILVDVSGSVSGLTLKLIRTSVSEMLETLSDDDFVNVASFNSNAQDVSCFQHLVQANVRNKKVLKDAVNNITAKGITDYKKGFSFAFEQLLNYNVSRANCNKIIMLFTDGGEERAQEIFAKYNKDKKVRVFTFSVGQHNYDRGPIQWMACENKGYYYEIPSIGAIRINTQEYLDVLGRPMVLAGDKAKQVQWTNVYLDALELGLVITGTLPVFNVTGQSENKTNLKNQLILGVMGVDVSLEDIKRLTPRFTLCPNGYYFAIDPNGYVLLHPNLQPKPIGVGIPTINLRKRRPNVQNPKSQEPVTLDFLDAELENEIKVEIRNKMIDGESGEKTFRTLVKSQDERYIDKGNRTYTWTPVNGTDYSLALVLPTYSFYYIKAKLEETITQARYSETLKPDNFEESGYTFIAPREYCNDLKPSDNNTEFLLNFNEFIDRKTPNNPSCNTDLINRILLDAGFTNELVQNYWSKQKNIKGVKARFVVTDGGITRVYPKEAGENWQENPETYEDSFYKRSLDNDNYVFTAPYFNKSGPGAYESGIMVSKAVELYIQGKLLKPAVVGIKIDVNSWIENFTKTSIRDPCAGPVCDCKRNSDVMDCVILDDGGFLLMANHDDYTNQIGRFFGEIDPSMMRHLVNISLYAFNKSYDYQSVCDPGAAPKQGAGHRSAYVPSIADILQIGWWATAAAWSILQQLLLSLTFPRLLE", "sequence (O08532 957-1103 partner limits assumed)": "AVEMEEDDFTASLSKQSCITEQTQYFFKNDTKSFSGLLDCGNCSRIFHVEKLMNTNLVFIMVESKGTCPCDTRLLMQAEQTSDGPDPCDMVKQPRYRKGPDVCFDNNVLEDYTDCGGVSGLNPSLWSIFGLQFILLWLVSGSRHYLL", "sequence (P54285 whole entry partner)": "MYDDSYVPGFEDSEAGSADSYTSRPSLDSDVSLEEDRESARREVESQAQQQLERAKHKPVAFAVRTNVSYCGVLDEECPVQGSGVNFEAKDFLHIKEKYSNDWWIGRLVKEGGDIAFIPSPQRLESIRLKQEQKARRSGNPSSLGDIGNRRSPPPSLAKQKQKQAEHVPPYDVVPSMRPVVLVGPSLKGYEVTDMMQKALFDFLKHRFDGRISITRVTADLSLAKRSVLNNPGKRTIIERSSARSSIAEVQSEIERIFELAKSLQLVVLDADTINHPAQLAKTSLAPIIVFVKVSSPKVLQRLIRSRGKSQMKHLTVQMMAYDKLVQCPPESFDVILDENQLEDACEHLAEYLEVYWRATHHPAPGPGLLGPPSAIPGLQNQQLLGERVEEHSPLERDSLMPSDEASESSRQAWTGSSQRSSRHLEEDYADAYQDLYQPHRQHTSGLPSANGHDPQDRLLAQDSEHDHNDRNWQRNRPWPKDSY", "assay": "Whole-cell patch clamp recordings of calcium currents in dorsal root ganglion neurons", "type": "cell-based, Swiss mice"}, "[2]": {"system": "pial 3 vessel occlusion (P3VO) model of stroke", "assay": "Pial vessel occlusion (P3VO) model of permanent ischemia", "type": "in vivo, Sprague Dawley rats", "settings": "for reduction of infarct size: single dose 3 nmol/g one hour after initiating ischemia, FIG. 3"}, "[3]": {"settings": "cited from earlier work"}, "[4]": {"system": "MCAO model of stroke", "settings": "previously tested; cited from earlier work"}, "[5]": {"biological_target": "N-type Ca channels (Homo sapiens, UniProt Q00975)", "type": "binding", "settings": "10 μM peptide"}, "[6]": {"settings": "peptide at 100 μM, mean+/-s.e.m., DRG neurons"}, "[7]": {"settings": "3 nMol/g i.v. one hour after occlusion, 24 h, FIG. 8"}}, "note": "Where two headings read alike, the source gives them in different places. Where no end group is shown, it is not given here. [ ]: non-standard residue; d: D form. Tle = CC(C)(C)[C@H](N)C(=O)O; Nva = CCC[C@H](N)C(=O)O", "data": [{"molecule": "1987: D-isomer of Tat-NR2B9c ([dY]G[dR][dK][dK][dR][dR][dQ][dR][dR][dR][dA][dL][dS][dS][dI][dE][dS][dD][dV]) [Peptide 1987]", "values": [{"measurement": "Ca2+ current shown as a percentage (normalized to current before peptide)", "setting": "[1]", "result": "82+/−2.2%"}, {"measurement": "inhibition of N-type calcium channel activity (in words)", "setting": "[1]", "result": "significant improvement in channel activity over TAT alone although still displayed some reduction"}]}, {"molecule": "YGRKKRRQRRRALSSIESDV (Synthetic peptide - 1994 Tat-NR2B9c K to A) [Peptide 1994]", "values": [{"measurement": "inhibition of N-type calcium channel activity (in words)", "setting": "[1]; FIG. 2, peptide at 100 μM", "result": "significant improvement in channel activity over TAT alone although still displayed some reduction"}, {"measurement": "inhibition of N-type calcium channel activity (in words)", "setting": "[1]; FIG. 2, peptide at 100 μM, listed as 1994 Tat-NR2B9c K to A", "result": "no significant inhibition"}, {"measurement": "Ca2+ current shown as a percentage (normalized to current before peptide)", "setting": "[1]; [6]", "result": "77+/−1.8%"}]}, {"molecule": "YGRKKRRQRRRKLSSIEADA (Synthetic peptide - 1992 Tat-NR2B9c-AA) [Peptide 1992]", "values": [{"measurement": "inhibition of N-type calcium channel activity (in words)", "setting": "[1]; FIG. 2, peptide at 100 μM", "result": "significant improvement in channel activity over TAT alone although still displayed some reduction"}, {"measurement": "Ca2+ current shown as a percentage (normalized to current before peptide)", "setting": "[1]; [6]", "result": "74+/−2.4%"}]}, {"molecule": "YGRKKRRQRRRKLSSIESDX [1977] (YGRKKRRQRRRKLSSIESD[Tle]) [Peptide 1977]", "values": [{"measurement": "Ca2+ current shown as a percentage (normalized to current before peptide)", "setting": "[1]; [6]", "result": "65+/−5.1%"}]}, {"molecule": "YGRKKRRQRRRKLSSIETDX (YGRKKRRQRRRKLSSIETD[Nva]) [Peptide 1975]", "values": [{"measurement": "infarct size (percent of hemisphere)", "setting": "[2]; [7]", "result": "some reduction in infarct size"}]}, {"molecule": "N[C@@H](Cc1ccc(O)c(O)c1)C(=O)O", "note": "[Levodopa]", "values": [{"measurement": "halflife", "setting": "[3]", "result": "halflife = 1.5 hrs"}]}, {"molecule": "NCCCC[C@H](N[C@@H](CCc1ccccc1)C(=O)O)C(=O)N1CCC[C@H]1C(=O)O", "note": "[Prinivil ® (lininopril), lininopril]", "values": [{"measurement": "halflife", "setting": "[3]", "result": "crossing, 12 hr"}]}, {"molecule": "FGRKKRRQRRRALSSIESDV (also: fluorescent label, place not given here (F-Tat-NR2B9c)) [Peptide 1995]", "values": [{"measurement": "Ca2+ current shown as a percentage (normalized to current before peptide)", "setting": "[1]; [6]", "result": "97+/−0.2%"}]}, {"molecule": "YGRKKRRQRRRKLSSIEXDV (YGRKKRRQRRRKLSSIE[L‑2‑amino‑3‑ureidopropionic acid]DV) [Peptide 1978]", "values": [{"measurement": "infarct size (percent of hemisphere)", "setting": "[2]; rat, in vivo, iv", "result": "some reduction in infarct size"}]}, {"molecule": "CC[C@H](C)C(=O)O[C@H]1C[C@H](O)C=C2C=C[C@H](C)[C@H](CC[C@@H](O)C[C@@H](O)CC(=O)O)[C@H]21", "note": "[Pravachol ® (pravastatin), pravastatin]", "values": [{"measurement": "bioavailability", "setting": "[3]", "result": "efficacy, low"}]}, {"molecule": "KLSSIESDV (Synthetic active peptide - 1991 2B9c) [Peptide 1991]", "values": [{"measurement": "inhibition of N-type calcium channel activity (in words)", "setting": "[1]; FIG. 2, peptide at 100 μM", "result": "no significant inhibition"}, {"measurement": "Ca2+ current shown as a percentage (normalized to current before peptide)", "setting": "[1]; [6]", "result": "94+/−1.7%"}]}, {"molecule": "FGRKKRRQRRRKLSSIESDV (also: fluorescent label, place not given here (F-Tat-NR2B9c)) [Peptide 1993]", "values": [{"measurement": "inhibition of N-type calcium channel activity (in words)", "setting": "[1]; FIG. 2, peptide at 100 μM", "result": "no significant inhibition"}, {"measurement": "Ca2+ current shown as a percentage (normalized to current before peptide)", "setting": "[1]; [6]", "result": "91+/−1.6%"}, {"measurement": "reduction of infarct size", "setting": "[2]", "result": "equally effective in reducing infarct size"}]}, {"molecule": "YGRKKRRQRRR [Peptide 1990, reference compound]", "values": [{"measurement": "Ca2+ current shown as a percentage (normalized to current before peptide)", "setting": "[1]", "result": "57+/−1.6%"}]}, {"molecule": "YGRKKRRQRRRKLSSIESDX (YGRKKRRQRRRKLSSIESD[Nva]) [Peptide 1976]", "values": [{"measurement": "infarct size (percent of hemisphere)", "setting": "[2]; [7]", "result": "significantly decreased infarct sizes"}]}, {"molecule": "YGRKKRRQRRRKLSSIESDV [Tat-NR2B9c, reference compound]", "values": [{"measurement": "neuroprotection, infarct size", "setting": "[4]", "result": "neuroprotective as seen by a reduced infarct size"}, {"measurement": "frequency (use) dependence of block of Ca2+ currents", "setting": "[1]; 100 μM, 0.07, 10, 20, 50 Hz, FIG. 6", "result": "not frequency dependent"}, {"measurement": "Ca2+ current shown as a percentage (normalized to current before peptide)", "setting": "[1]; [6]", "result": "68+/−1.7%"}, {"measurement": "voltage dependence of inhibition of Ca2+ current", "setting": "[1]; steps from −40 to +50 mV, FIG. 7", "result": "independent of voltage"}, {"measurement": "infarct size (percent of hemisphere)", "setting": "[2]; [7]", "result": "significantly decreased infarct sizes"}, {"measurement": "reduction of infarct size", "setting": "[2]", "result": "equally effective in reducing infarct size"}, {"measurement": "inhibition of radiolabeled ω-Conotoxin GVIA binding to N-type Ca channels", "setting": "[5]", "result": 100, "unit": "%"}]}, {"molecule": "YGRKKRRQRRRKLSSIESDX [1976] (YGRKKRRQRRRKLSSIESD[Nva]) [Peptide 1976]", "values": [{"measurement": "Ca2+ current shown as a percentage (normalized to current before peptide)", "setting": "[1]; [6]", "result": "66+/−3.4%"}]}]}
